Measurements reported in patent US12139520B2 (priority 2020, dated 2024).
Numbered stars: 1 amine (or outer) side, 2 acyl side, 3 side chain; on linkers, the order of the positions; unused ones are H or OH. Bridge positions count the residues as written; N and C are the ends. Square brackets hold non-standard residues; d marks the D form. Side chains are listed from the residue outwards. Ends that are not written are not given here. * marks the point of attachment. C20 diacid = O=C(O)CCCCCCCCCCCCCCCCCCC(=O)*; γGlu = O=C(O)[C@H](CCC(=O)[*:2])N[*:1]; Hyp = O=C(O)[C@@H]1C[C@@H](O)CN1; Cit = NC(=O)NCCC[C@H](N)C(=O)O; AEEA = NCCOCCOCC(=O)O

T1: hAMY3R (human, UniProt P30988)
T1 sequence 1: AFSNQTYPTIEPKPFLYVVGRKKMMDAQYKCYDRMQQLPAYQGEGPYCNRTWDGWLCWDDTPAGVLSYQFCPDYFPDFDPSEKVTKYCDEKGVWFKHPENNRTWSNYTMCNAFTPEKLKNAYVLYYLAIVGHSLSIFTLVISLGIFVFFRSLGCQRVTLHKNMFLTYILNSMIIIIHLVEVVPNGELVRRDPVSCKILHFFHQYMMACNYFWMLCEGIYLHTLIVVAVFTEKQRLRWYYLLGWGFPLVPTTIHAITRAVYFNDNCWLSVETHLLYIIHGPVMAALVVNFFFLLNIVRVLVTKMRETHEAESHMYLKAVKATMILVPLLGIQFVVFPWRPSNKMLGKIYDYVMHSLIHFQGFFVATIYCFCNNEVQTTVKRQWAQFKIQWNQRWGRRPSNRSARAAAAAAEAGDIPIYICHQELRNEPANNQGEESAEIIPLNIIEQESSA
T1 sequence 2: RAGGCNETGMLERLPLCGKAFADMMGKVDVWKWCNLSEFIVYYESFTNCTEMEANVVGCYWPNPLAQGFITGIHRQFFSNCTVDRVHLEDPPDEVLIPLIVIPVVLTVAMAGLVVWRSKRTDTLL


Assays:
hAM1R = hAM1R (human, UniProt Q16602); assay: cell-based or functional assay
hAMY3R = biological target: T1, hAMY3R; assay: cell-based or functional assay

Row | Binder | hAM1R EC50 (cAMP) (hAM1R) | hAMY3R EC50 (cAMP) (hAMY3R)
1 | GCRTGTCTVQRLAHQIYQFTDKDKDNVAPRTNVSPNG[Hyp]-NH2 (disulfide 2-7 (inferred); ends not checked) [SEQ ID NO: 163] | 2980 nM | 0.053 nM
2 | GCRTGTCTVQRLAHQIYQFTDKDKDNVAPRSNVGPQGY [SEQ ID NO: 138] | 2980 nM | 0.035 nM
3 | GCRTGTCTVQRLAHQIYQFTDKDKDNVAPRTKVGPQGY [SEQ ID NO: 156] | 2980 nM | 0.047 nM
4 | GCRTGTCTVQRLAHQIYQFTDKDKDNVAPRTNIGPNGY [SEQ ID NO: 142] | 2980 nM | 0.036 nM
5 | GCRFGTCTVQRLAHQIYQFTDKDKDNVAPRSKISPQGY [SEQ ID NO: 154] | 2980 nM | 0.042 nM
6 | GCRFGTCTVQRLAHQIYQFTDKDKDNVAPRTKVSPQGY [SEQ ID NO: 155] | 116 nM | 0.045 nM
7 | KCNTATCATQRLANFLVHSSNNFGAILSSTKIGSNGY [SEQ ID NO: 148] | > 5000 nM | 0.04 nM
8 | KCNTATCATQRLANFLVHSSNNFGAILSSTNVGSNTY (ligand, disulfide 2-7) [hAMY1-37] | > 5000 nM | 0.01 nM
9 | KCNTATCTVQRLAHQIAQFTDKDKDNVAPPTNVGSNG[Hyp]-NH2 (disulfide 2-7 (inferred); ends not checked) [SEQ ID NO: 14] | > 5000 nM | 0.007 nM
10 | GCRWGTCTVQRLAHQIYQFTDKDKDNVAPRSKISPQT[Hyp]-NH2 (disulfide 2-7 (inferred); ends not checked) [SEQ ID NO: 150] | > 5000 nM | 0.04 nM
11 | GCRFGTCTVQRLAHQIYQFTDKDKDNVAPRSNVSPQG[Hyp]-NH2 (disulfide 2-7 (inferred); ends not checked) [SEQ ID NO: 145] | 2980 nM | 0.039 nM
12 | GCRIGTCTVQRLAHQIYQFTDKFKDNVAPRSKISPQT[Hyp]-NH2 (disulfide 2-7 (inferred); ends not checked) [SEQ ID NO: 147] | 3110 nM | 0.04 nM
13 | {C20 diacid-γGlu}-KCNTATCTVIRLAHQIYQFTDKDKDNVAPPTNVGSNG[Hyp]-NH2 (disulfide 2-7 (inferred); ends not checked) [SEQ ID NO: 159] | > 5000 nM | 0.048 nM
14 | {C20 diacid-γGlu}-KCNTATCTVQ[Cit]LAEQIAQFTDKDKDNVAPPTNVGSNG[Hyp]-NH2 (disulfide 2-7 (inferred); ends not checked) [SEQ ID NO: 153] | > 5000 nM | 0.041 nM
15 | GCRTGTCTVQRLAHQIYQFTDKDKDNVAPRSNIGPNG[Hyp]-NH2 (disulfide 2-7 (inferred); ends not checked) [SEQ ID NO: 151] | 44.9 nM | 0.041 nM
16 | GCRTGTCTVQRLAHQIYQFTDKDKDNVAPRSKVGPNG[Hyp]-NH2 (disulfide 2-7 (inferred); ends not checked) [SEQ ID NO: 139] | 2980 nM | 0.035 nM
17 | GCRTGTCTVQRLAHQIYQFTDKDKDNVAPRSKIGPNG[Hyp]-NH2 (disulfide 2-7 (inferred); ends not checked) [SEQ ID NO: 157] | 2980 nM | 0.047 nM
18 | GCRFGTCTVQRLAHQIYQFTDKDKDNVAPRTKISPQGY [SEQ ID NO: 164] | 106 nM | 0.054 nM
19 | KCNTATCTVQRLAEQIK([AEEA-AEEA-γGlu-C20 diacid])QFTDKDKDNVAPPTNVGSNG[Hyp]-NH2 (disulfide 2-7 (inferred); ends not checked) [SEQ ID NO: 136] | > 5000 nM | 0.033 nM
20 | GCRFGTCTVQRLAHQIYQFTDKDKDNVAPRSNISPQG[Hyp]-NH2 (disulfide 2-7 (inferred); ends not checked) [SEQ ID NO: 158] | 2980 nM | 0.048 nM
21 | GCRTGTCTVQRLAHQIYQFTDKDKDNVAPRSNIGPQG[Hyp]-NH2 (disulfide 2-7 (inferred); ends not checked) [SEQ ID NO: 165] | 2980 nM | 0.054 nM
22 | GCRTGTCTVQRLAHQIYQFTDKDKDNVAPRTKVGPQG[Hyp]-NH2 (disulfide 2-7 (inferred); ends not checked) [SEQ ID NO: 143] | 2980 nM | 0.038 nM
23 | {C20 diacid-γGlu}-KCNTATCTVQRLAEQIAQFTDKDKDPVAPPTNVGSNG[Hyp]-NH2 (disulfide 2-7 (inferred); ends not checked) [SEQ ID NO: 144] | > 5000 nM | 0.038 nM
24 | GCRFGTCTVQRLAHQIYQFTDKDKDNVAPRTNISPQG[Hyp]-NH2 (disulfide 2-7 (inferred); ends not checked) [SEQ ID NO: 141] | 258 nM | 0.036 nM
25 | GCRFGTCTVQRLAHQIYQFTDKDKDNVAPRTKISPQG[Hyp]-NH2 (disulfide 2-7 (inferred); ends not checked) [SEQ ID NO: 146] | 2980 nM | 0.04 nM

Continued, values first:

Row | hAM1R EC50 (cAMP) (hAM1R) | hAMY3R EC50 (cAMP) (hAMY3R) | Binder
26 | 31.4 nM | 0.036 nM | GCRFGTCTVQRLAHQIYQFTDKDKDNVAPRTNISPQGY [SEQ ID NO: 140]
27 | 2980 nM | 0.05 nM | GCRTGTCTVQRLAHQIYQFTDKDKDNVAPRTNIGPQGY [SEQ ID NO: 160]
28 | > 5000 nM | 0.051 nM | KCNTATCATQRLANFLVHSSNNFGAILPSTKIGPNGY [SEQ ID NO: 162]
29 | > 5000 nM | 0.04 nM | KCNTATCATQRLANFLVHSSNNFGAILPSTKVGPNGY [SEQ ID NO: 149]
30 | 125 nM | 0.008 nM | GCRFGTCTVQRLANFLYQFTDKDKDNVAPRTNVGPQGY [SEQ ID NO: 16]
31 | 213 nM | 0.041 nM | GCRFGTCTVQRLAHQIYQFTDKDKDNVAPRSKVGPQG[Hyp]-NH2 (disulfide 2-7 (inferred); ends not checked) [SEQ ID NO: 152]
32 | 2980 nM | 0.051 nM | GCRTGTCTVQRLAHQIYQFTDKDKDNVAPRTKIGPQG[Hyp]-NH2 (disulfide 2-7 (inferred); ends not checked) [SEQ ID NO: 161]
33 | 68.4 nM | 0.033 nM | GCRFGTCTVQRLAHQIYQFTDKDKDNVAPRSNVGPQG[Hyp]-NH2 (disulfide 2-7 (inferred); ends not checked) [SEQ ID NO: 135]
34 | > 5000 nM | 0.034 nM | {C20 diacid-γGlu}-KCNTATCTVARLAHQINQFTDKDKDPVAPPTNVGSNG[Hyp]-NH2 (disulfide 2-7 (inferred); ends not checked) [SEQ ID NO: 137]
35 | 295 nM | 0.008 nM | KCNFATCTVQRLAHQIYQFTDKDKDNVAPRTEVGSNG[Hyp]-NH2 (disulfide 2-7 (inferred); ends not checked) [SEQ ID NO: 17]
36 | > 5000 nM | 0.007 nM | KCNTSTCTVARLADQITQFSDKDKANVSPPTEVGPNS[Hyp]-NH2 (disulfide 2-7 (inferred); ends not checked) [SEQ ID NO: 15]
